Data from patent publication US8835136B2, “Engineered amine dehydrogenases and methods of use thereof” (Georgia Tech Research Corporation, priority 2012, dated 2014).
Where “and” joins values, the source holds several entries; their conditions need not be identical. Equal values may be shown once.

Key:
[1] = Temperature versus activity profile (PheDH-AmDH); assay type: biochemical
Description: The thermostability of the double variant K77S N276L was additionally determined by a temperature versus activity plot, showing the results of amination activity measured in 5 M NH4Cl/NH4OH buffer pH 9.6, 200 μM NADH, 20 mM PFPA for 2 minutes (FIG. 17). […] The near linear increase corresponds to a low activation energy of 241 J mol^−1. The maximum specific activity was 11.6 U mg^−1 at a temperature of 50° C. Above 50° C., the enzyme began to rapidly lose activity as a result of denaturation. This deactivation correlated well with the circular dichroism data, where a dramatic loss of secondary structure was observed from 50° C. to 70° C.

[2] = Conversion with GDH cofactor recycle system (PheDH-AmDH); assay type: biochemical; conditions: 100 mL, 20 mM PFPA, 48 hours
Description: The GDH consumes glucose present in solution to cheaply and efficiently regenerate the NADH cofactor, allowing conversion to continue beyond stoichiometric depletion of NADH. In a 100 mL reaction volume containing 20 mM PFPA, conversion was allowed to continue for 48 hours followed by extraction and ^1H-NMR to confirm the product formation and conversion levels. […] Under the same reaction conditions, 17.46 mg of the AmDH enhanced the overall conversion to 93.8% and 73.9% yield. Evidence of chirality was indicated by different NMR signals of the C3 hydrogens (δ 2.67, 2.49) which are adjacent to the C2 stereocenter (FIG. 18).

[3] = Oxidative deamination, spectrophotometric assay at 340 nm; assay type: biochemical; conditions: deamination
Description: (§1) Activity of purified proteins was measured using a spectrophotometric assay at 340 nm, corresponding to the cofactor nicotinamide adenine dinucleotide (NADH, ε340=6220 M^−1 cm^−1) (Dawson, et al., Clarendon Press, (1989). For reductive amination, reactions took place in 500 mM NH4Cl/NH4OH at pH 9.6, with 200 μM NADH and 20 mM of the ketone substrate, unless otherwise specified. […] All reactions were performed at 25° C. unless otherwise specified. Enzyme was added in 10 μL aliquots in dilute concentrations. Enzyme concentrations varied upon activity levels with the substrate present, but were dilute enough to ensure linear conversion kinetics over the analytical time period (10 min to 30 min). Specific activities were then calculated from the stoichiometric conversion of cofactor as determine by the change in absorbance at 340 nm over time.

[4] = Thermostability by circular dichroism (PheDH); assay type: physicochemical
Description: The thermostability of the AmDH was compared to its wild-type scaffold using two different methods, circular dichroism (CD) and a temperature versus activity profile. The mutation of the enzyme scaffold has affected the thermostability, in addition to the enzyme's function. […] Beyond 30 degrees, there is an earlier onset in the pronounced loss of structure of the double variant compared to the wild type; however, the slope folded fraction over temperature stays constant, indicative of constant enthalpy of melting. The K77S N276L mutations have slightly destabilized the protein structure, resulting in a melting point of 59.9° C., 4.4° C. less than the wild type. The specific cause for this change is difficult to determine. It likely to be either disruption of the ‘ideal’ packing of the wild-type enzyme's hydrophobic core or a net decrease in hydrophobicity by the amino acid substitutions which leads to a lower folding entropy.

[5] = Reductive amination, spectrophotometric assay at 340 nm; assay type: biochemical; conditions: 500 mM NH4Cl/NH4OH pH 9.6, 200 μM NADH, 20 mM, 25° C.
Description: (§2) Activity of purified proteins was measured using a spectrophotometric assay at 340 nm, corresponding to the cofactor nicotinamide adenine dinucleotide (NADH, ε340=6220 M^−1 cm^−1) (Dawson, et al., Clarendon Press, (1989). For reductive amination, reactions took place in 500 mM NH4Cl/NH4OH at pH 9.6, with 200 μM NADH and 20 mM of the ketone substrate, unless otherwise specified. For oxidative deamination, reactions took place in 0.1 M NaHCO3/Na2CO3 buffer at pH 10.0, with 1 mM NAD+ with 10 mM of the amine substrate of interest. All reactions were performed at 25° C. unless otherwise specified. Enzyme was added in 10 μL aliquots in dilute concentrations. Enzyme concentrations varied upon activity levels with the substrate present, but were dilute enough to ensure linear conversion kinetics over the analytical time period (10 min to 30 min). Specific activities were then calculated from the stoichiometric conversion of cofactor as determine by the change in absorbance at 340 nm over time.

[6] = Enantioselectivity of PFPA amination, chiral gas chromatography; assay type: biochemical; conditions: chiral GC after TFAA derivatization
Description: Equally important to conversion is maintaining the selectivity of the enzyme after altering the substrate specificity. Preservation of the wild type (S)-selectivity towards phenylalanine will result in the asymmetric production of (R)-1-(4-fluorophenyl)-propyl-2-amine due to a change in Cahn-Ingold-Prelaw priority. The product amine resulting from enzymatic conversion with the co-factor recycle was isolated and derivatized using trifluoroacetic anhydride for analysis via chiral gas chromatography. An enantiomeric excess of >99.8% toward (R)-1-(4-fluorophenyl)-propyl-2-amine was confirmed, however, further resolution of the selectivity was limited by the separation capability of the chiral column. Throughout all experiments, the (S)-enantiomer remained below the detection limits. Even as the enzyme approaches levels of conversion beyond 90%, the high enantioselectivity toward (R)-1-(4-fluorophenyl)-propyl-2-amine is maintained. This renders the AmDH/GDH system a viable method for the production of chiral amines.

[7] = Reductive amination, spectrophotometric assay at 340 nm; assay type: biochemical; conditions: 500 mM NH4Cl/NH4OH pH 9.6, 200 μM NADH, 20 mM, 25° C.; remark: listed apart in the source
Description: as §2
The activity of the purified protein was evaluated using a spectrophotometric assay at 340 nm as described in Section 3.2.3 at 25° C. in various concentrations of NH4Cl/NH4OH buffer pH 9.6.

[8] = Oxidative deamination, spectrophotometric assay at 340 nm; assay type: biochemical; conditions: deamination, 0.1M glycine pH 10.0, 1 mM NAD+, 20 mM, 25° C.
Description: as §1
The enantioselectivity was initially estimated by measuring the deamination activity toward individual enantiomers of methylbenzylamine (MBA). […] A preference towards (R)-MBA over the corresponding (S)-enantiomer was evident in the discrepancies between the deamination activities of 0.586 U mg^−1 and 0.002 U mg^−1, respectively. These preliminary results were corroborated through direct measurement of the enantioselectivity of the MIBK amination in producing chiral 1,3-DMBA.

B1: K77S N276L: PheDH-AmDH double variant, SEQ ID NO:2; PheDH library 1 hit 1H4 (protein)
chain: SLVEKTSIIKDFTLFEKMSEHEQVVFCNDPATGLRAIIAIHDTTLGPALGGCRMQPYNSVEEALEDALRLSKGMTYSCAASDVDFGGGKAVIIGDPQKDKSPELFRAFGQFVDSLGGRFYTGTDMGTNMEDFIHAMKETNCIVGVPEAYGGGGDSSIPTAMGVLYGIKATNKMLFGKDDLGGVTYAIQGLGKVGYKVAEGLLEEGAHLFVTDINEQTLEAIQEKAKTTSGSVTVVASDEIYSQEADVFVPCAFGGVVNDETMKQFKVKAIAGSANLQLLTEDHGRHLADKGILYAPDYIVNSGGLIQVADELYEVNKERVLAKTKHIYDAILEVYQQAELDQITTMEAANRMCEQRMAARGRRNSFFTSSVKPKWDIRN
For B1, the activation energy ([1]; 10-45° C.) was 0.0576 kcal/mol, the maximum specific activity ([1]; at 50° C., 5 M NH4Cl/NH4OH pH 9.6, 200 μM NADH, 20 mM PFPA) was 11.6 U mg^−1 and the “conversion of 4-fluorophenyl acetone” value ([2]; 7.48 mg AmDH) was 89.4%. The overall conversion ([2]; 17.46 mg AmDH) was 93.8%, the “Activity, R/S-MBA” value ([3]; 40 mM, 20 mM of each enantiomer) was 0.5 ± 0.2 mU/mg and the “Activity, 1,3-DMBA” value ([3]; 0.1M glycine pH 10.0, 1 mM NAD+, 20 mM, 25° C.) was 166.3 ± 0.0 mU/mg. For the same molecule, the “decrease of melting point versus the wild type” value [4] was 4.4 °C, the melting point ([4]; 100 μg mL-1, 50 mM sodium phosphate pH 8.0) was 59.9 °C and the “Activity, MIBK” value [5] was 77.0 ± 1.3 mU/mg. For the same molecule, the “Activity, cyclohexanone” value [5] was 27.5 ± 1.4 mU/mg, the “Activity, ethylpyruvate” value [5] was 18.4 ± 5.9 mU/mg and the “enantiomeric excess toward (R)-1-(4-fluorophenyl)-propyl-2-amine” value [6] was over 99.8%. For the same molecule, the “Activity, 1-Boc-piperidone” value [7] was 7.8 ± 1.1 mU/mg, the “Activity, 2-hexanone” value [7] was 155.7 mU/mg and 155.7 ± 1.4 mU/mg and the “Activity, 2-methylcyclohexanone” value [7] was 19.3 ± 1.1 mU/mg. The “Activity, 3-hexanone” value [7] was 1.6 mU/mg and 1.6 ± 0.5 mU/mg, the “Activity, 3-methyl-2-butanone” value [7] was 72.7 ± 1.4 mU/mg and the “Activity, 3-methylcyclohexanone” value [7] was 41.1 ± 2.1 mU/mg. The “Activity, 3-pentanone” value [7] was 1.3 ± 0.0 mU/mg, the “Activity, Benzyloxyacetic acid” value [7] was 22.6 ± 0.7 mU/mg and the “Activity, benzaldehyde” value [7] was 31.4 ± 8.7 mU/mg. The “Activity, cyclopentanone” value [7] was 0.9 ± 0.5 mU/mg, the “Activity, phenoxy-2-propanone” value [7] was 540.8 ± 6.9 mU/mg and the “Activity, 2-hexanone” value ([7]; listed as K77S/N276L) was 155.7 mU/mg. The “Activity, 3-hexanone” value ([7]; listed as K77S/N276L) was 1.6 mU/mg, the “Activity, R-MBA” value [8] was 1.9 ± 1.8 mU/mg and the “Activity, S-MBA” value [8] was under 1.0 mU/mg.
